Laboratory results published in patent US20170233490A1 (Hoffmann-La Roche, published 2017).

T1: human HER4 Extracellular Domain (ECD) (human, UniProt Q15303 26-651)
T1 construct: also called Her4 ECD; HER4-ECD
T1 sequence: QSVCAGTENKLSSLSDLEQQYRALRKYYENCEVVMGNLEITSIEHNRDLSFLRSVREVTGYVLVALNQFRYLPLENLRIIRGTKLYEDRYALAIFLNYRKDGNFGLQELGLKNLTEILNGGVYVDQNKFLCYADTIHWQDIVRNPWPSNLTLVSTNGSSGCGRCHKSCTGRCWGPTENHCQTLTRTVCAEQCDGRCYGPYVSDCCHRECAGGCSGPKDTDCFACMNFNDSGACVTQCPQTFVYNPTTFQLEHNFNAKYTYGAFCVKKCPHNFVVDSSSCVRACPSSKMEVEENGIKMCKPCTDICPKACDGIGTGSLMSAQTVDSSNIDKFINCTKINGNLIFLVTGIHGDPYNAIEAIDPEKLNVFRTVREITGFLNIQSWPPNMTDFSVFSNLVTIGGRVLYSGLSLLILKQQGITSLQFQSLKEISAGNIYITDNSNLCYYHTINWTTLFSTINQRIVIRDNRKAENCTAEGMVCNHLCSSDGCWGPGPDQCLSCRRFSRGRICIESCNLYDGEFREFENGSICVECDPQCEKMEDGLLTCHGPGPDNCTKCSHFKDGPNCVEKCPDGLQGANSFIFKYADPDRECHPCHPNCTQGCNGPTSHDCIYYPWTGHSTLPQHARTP

T2: TtSlyDcas
T2 construct: scaffold without hairpin insert, negative control
T2 chain: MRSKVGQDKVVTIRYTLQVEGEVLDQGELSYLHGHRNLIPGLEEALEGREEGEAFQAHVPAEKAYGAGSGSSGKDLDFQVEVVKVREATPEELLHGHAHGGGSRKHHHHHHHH

T3: TgSlyDΔIF
T3 construct: scaffold without hairpin insert, negative control
T3 chain: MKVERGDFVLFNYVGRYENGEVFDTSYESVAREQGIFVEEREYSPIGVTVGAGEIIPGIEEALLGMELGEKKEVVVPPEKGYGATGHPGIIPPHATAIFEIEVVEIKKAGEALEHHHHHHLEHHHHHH

T4: TtSlyDcas-Her3
T4 chain: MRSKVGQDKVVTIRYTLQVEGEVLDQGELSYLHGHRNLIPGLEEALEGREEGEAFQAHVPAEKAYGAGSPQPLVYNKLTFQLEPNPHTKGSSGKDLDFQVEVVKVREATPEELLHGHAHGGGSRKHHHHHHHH

T5: TtSlyDcys-Her3
T5 chain: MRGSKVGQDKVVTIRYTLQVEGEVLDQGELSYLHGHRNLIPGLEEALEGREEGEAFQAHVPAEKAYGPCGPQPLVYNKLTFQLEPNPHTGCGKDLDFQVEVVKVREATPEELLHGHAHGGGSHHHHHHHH

T6: TgSlyDser-Her3
T6 chain: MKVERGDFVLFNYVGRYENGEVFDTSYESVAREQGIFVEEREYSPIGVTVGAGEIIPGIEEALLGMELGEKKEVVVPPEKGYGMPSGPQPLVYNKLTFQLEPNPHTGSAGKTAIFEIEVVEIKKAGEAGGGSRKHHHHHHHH

T7: TgSlyDcys-Her3
T7 chain: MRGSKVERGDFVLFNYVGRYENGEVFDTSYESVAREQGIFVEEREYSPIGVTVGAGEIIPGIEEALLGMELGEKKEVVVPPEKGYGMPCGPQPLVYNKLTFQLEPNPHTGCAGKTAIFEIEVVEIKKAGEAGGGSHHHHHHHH


Key:
[1] = target: T8, human HER3 Extracellular Domain (ECD) (human, UniProt P21860 20-643); experiment: ELISA, coated antigen
T8 construct: human recombinant, 68 kDa; 'closed' conformation without ligand; also called Her3 ECD; Her-3 ECD
Procedure: (§1) For the ELISA the screening an antigen down format was used. […] Hybridoma Supernatant was added to the plates and incubated for 1 h at room temperature. Bound antibody was detected with a HRP-labeled F(ab′)₂ goat anti-mouse Fcγ (Dianova) and ABTS (Roche) was used as a HRP-substrate.
(§2) As negative controls the scaffold proteins TtSlyDcas and TgSlyDΔIF were used.

[2] = target: T1, human HER4 Extracellular Domain (ECD); experiment: ELISA, coated antigen
Procedure: as §1, §2

[3] = target: T9, human HER1 Extracellular Domain (ECD) (human, UniProt P00533 25-645); experiment: ELISA, coated antigen
T9 construct: also called Her1 ECD; HER1-ECD
Procedure: as §1, §2

[4] = target: T10, human HER2 Extracellular Domain (ECD) (human, UniProt P04626 23-652); experiment: ELISA, coated antigen
T10 construct: human recombinant, 69.6 kDa; also called Her2 ECD; HER2_ECD
Procedure: as §1, §2

TtSlyDcas [5] = target: T2, TtSlyDcas; experiment: ELISA, coated antigen
Procedure: as §1, §2

TgSlyDΔIF [6] = target: T3, TgSlyDΔIF; experiment: ELISA, coated antigen
Procedure: as §1, §2

TtSlyDcas-Her3 = target: T4, TtSlyDcas-Her3; experiment: ELISA, coated antigen
Procedure: as §1, §2

TtSlyDcys-Her3 = target: T5, TtSlyDcys-Her3; experiment: ELISA, coated antigen
Procedure: as §1, §2

TgSlyDser-Her3 = target: T6, TgSlyDser-Her3; experiment: ELISA, coated antigen
Procedure: as §1, §2

TgSlyDcys-Her3 = target: T7, TgSlyDcys-Her3; experiment: ELISA, coated antigen
Procedure: as §1, §2

[7] = target: T9, human HER1 Extracellular Domain (ECD); experiment: ELISA, coated antigen, hybridoma supernatant
Procedure: as §1

[8] = target: T10, human HER2 Extracellular Domain (ECD); experiment: ELISA, coated antigen, hybridoma supernatant
Procedure: as §1

TtSlyDcas [9] = target: T2, TtSlyDcas; experiment: ELISA, coated antigen 0.5 µg/ml, hybridoma supernatant
Procedure: as §1

TgSlyDΔIF [10] = target: T3, TgSlyDΔIF; experiment: as above
Procedure: as §1

[11] = target: T11, human HER1 (full length, on cells) (human, UniProt P00533 25-1210); experiment: IHC (Ventana Benchmark XT) on formalin-fixed, paraffin-embedded HEK293 cells transiently transfected with full length HER1
T11 construct: HEK293 cells transfected with full length HER1, fixed and embedded (IHC); also called EGFR
Procedure: (§3) All selected clones were tested for reactivity and specificity in IHC. […] After an additional fixation in formalin overnight the Agarose blocks were embedded in paraffin. Untransfected HEK293 cells were used as negative controls and treated accordingly to the transfected cells. After paraffin embedding 3 μm thin sections were prepared using a microtome. The sections were mounted on glass microscopy slides and dried for 2 h. All further steps of the immunohistochemical staining procedure were carried out using a Ventana Benchmark XT. The slides were dewaxed and antigen retrieval was performed by applying heat for 1 hour. For antigen retrieval the Ventana buffer CC1 was used. The antibodies were used at a concentration of 1 μg/ml. For the detection of bound antibody the Ventana UltraView detection kit was used.

[12] = target: T12, human HER2 (full length, on cells) (human, UniProt P04626 23-1255); experiment: IHC (Ventana Benchmark XT) on formalin-fixed, paraffin-embedded HEK293 cells transiently transfected with full length HER2
T12 construct: HEK293 cells transfected with full length HER2 (IHC); MCF-7 cells (co-immunoprecipitation)
Procedure: as §3

ELISA signal [1]	ELISA signal [2]	ELISA signal [3]	ELISA signal [4]	ELISA signal (TtSlyDcas [5])	ELISA signal (TgSlyDΔIF [6])	ELISA signal (TtSlyDcas-Her3)	ELISA signal (TtSlyDcys-Her3)	ELISA signal (TgSlyDser-Her3)	ELISA signal (TgSlyDcys-Her3)	binding result [7]	binding result [8]	binding result (TtSlyDcas [9])	binding result (TgSlyDΔIF [10])	binding result [11]	binding result [12]	Binder
3.15	3.19	0.024	0.025	0.04	0.04	1.76	1.52	1.98	1.78	no binding	no binding	no binding	no binding	no binding (tested: 1 µg/ml)	no binding (tested: 1 µg/ml)	M-15-02 (antibody, V domains shown, murine hybridoma clone) VH: QVQLQQSGAELAKPGASVKMSCKTSGYTLTDYWIHWVKQRPGQGLEWIGYINPYTGYTESNQKFKDKATLTADKSSNTAYIQLSSLTSEDSAVYYCARPYYYGDYWGQGTTLTVSS VL: QIVLTQSPAIMSASPGERVTITCSASSSVSYMHWFQQKPGTSPKLLIYSTSNLASGVPARFSGSGSGTSYSLTISRMEAEDAATYYCQQRSSYPFTFGSGTKLEIK
3.17	3.19	0.067	0.064	0.04	0.033	1.85	1.46	1.83	1.5	no binding	no binding	no binding	no binding	no binding (tested: 1 µg/ml)	no binding (tested: 1 µg/ml)	M-15-04 (antibody, V domains shown, murine hybridoma clone) VH: QVQLQQSGAELAKPGASVKMSCKTSGYTLTDYWIHWVKQRPGQGLEWIGYINPYTGYTESNQKFKDKATLTADKSSNTAYIQLSSLTSEDSAVYYCARPYYYGDYWGQGTTLTVSS VL: QIVLTQSPAIMSASPGERVTITCSASSSVSYMHWFQQKPGTSPKLLIYSTSNLASGVPARFSGSGSGTSYSLTISRMEAEDAATYYCQQRSSYPFTFGSGTKLEIK
